The values below come from patent publication US20250332197A1 (SUNSHINE LAKE PHARMA, published 2025).

Numbering of substitutions follows the chain as printed.

For assay [1], the target named is T1, claudin-18.2 antigen (manufacturer: GenScript, batch number: R50092011) (UniProt P56856-2 1-261, limits assumed).
T1 construct: Bought antigen
T1 sequence (looked up): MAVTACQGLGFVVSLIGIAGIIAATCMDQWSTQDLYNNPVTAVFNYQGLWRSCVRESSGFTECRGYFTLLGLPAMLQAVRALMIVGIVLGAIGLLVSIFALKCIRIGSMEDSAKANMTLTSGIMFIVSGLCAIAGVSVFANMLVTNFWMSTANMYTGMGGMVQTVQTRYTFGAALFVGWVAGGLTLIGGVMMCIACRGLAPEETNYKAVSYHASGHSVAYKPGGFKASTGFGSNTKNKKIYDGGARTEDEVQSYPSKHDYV
The experiment in a line: Gator label-free kinetics, antibody loaded, antigen 2000-500 nM. Here is the method:
The GATOR instrument and associated software were opened and the Kinetics experimental mode was selected. After data collection, Kinetics fitting was performed to calculate the affinity kinetic parameters. The correlation coefficient R² of all antibodies in the Global fitting mode was greater than 0.95, which met the system suitability requirements and the results were reliable.

For assay [2], the target named is T1, claudin-18.2 antigen (manufacturer: …). The experiment in a line: ELISA, plate coated with claudin-18.2 antigen. Here is the method:
The ELISA plates were washed three times with PBST and blocked with 5% PBS-milk for 2 h at room temperature. The ELISA plate was washed three times with PBST, and the diluted antibodies were added to the ELISA plate, 30 μL per well, and incubated at room temperature for 60 min. The plates were washed three times with PBST and incubated with anti-human IgG-Fc-HRP (abcam, ab97225) for 50 min at room temperature. The plate was washed 12 times with PBST, and TMB was added, 30 μL per well. The reaction was terminated with stop solution and OD450 was read. The ELISA affinity EC50 was calculated.

B1: 1E7-mVHmVL (antibody, human IgG4 S228P, kappa)
heavy: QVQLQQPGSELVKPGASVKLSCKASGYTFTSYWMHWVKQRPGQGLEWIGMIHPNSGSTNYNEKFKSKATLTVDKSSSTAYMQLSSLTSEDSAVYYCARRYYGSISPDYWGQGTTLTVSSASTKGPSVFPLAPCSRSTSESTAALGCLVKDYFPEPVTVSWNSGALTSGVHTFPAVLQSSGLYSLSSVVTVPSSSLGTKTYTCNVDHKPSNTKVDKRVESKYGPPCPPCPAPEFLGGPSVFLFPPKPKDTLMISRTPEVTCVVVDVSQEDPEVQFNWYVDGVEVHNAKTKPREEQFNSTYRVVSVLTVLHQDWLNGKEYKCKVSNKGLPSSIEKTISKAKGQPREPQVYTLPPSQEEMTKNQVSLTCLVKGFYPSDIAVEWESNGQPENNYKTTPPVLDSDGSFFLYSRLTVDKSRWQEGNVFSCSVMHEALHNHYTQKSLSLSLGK
light: DIVMTQSPSSLSVTAGEKVTMSCKSSQSLLNSGNQKNYLTWYQQKPGQPPKLLIYWASTRESGVPDRFTGSGSGTDFTLTISSVQAEDLAVYYCQNDYSYPFTFGSGTKLEIKRTVAAPSVFIFPPSDEQLKSGTASVVCLLNNFYPREAKVQWKVDNALQSGNSQESVTEQDSKDSTYSLSSTLTLSKADYEKHKVYACEVTHQGLSSPVTKSFNRGEC
notes: also called chimeric antibody 1E7; chimeric antibody murine 1E7 monoclonal antibody
In assay [1], B1 came in with an equilibrium dissociation constant (Kd) of 2.66 nM, a koff of 2.71e-05 s⁻¹ and a kon of 10200 M⁻¹ s⁻¹.

B2: 1E7-mVH-HC (IgG1) mVL (antibody)
heavy: not shown
light: B1 light
notes: also called chimeric antibody 1E7-mVH-HC (IgG1) mVL
In assay [1], B2 gave an equilibrium dissociation constant (Kd) of 3.82 nM, a koff of 4.48e-05 s⁻¹ and a kon of 11700 M⁻¹ s⁻¹.

B3: 1B6-mVH-HC (IgG1) mVL (antibody)
heavy: not shown
light: B1 light with S12T, L30F, Y93F, F102L, S106A, I112L
notes: also called chimeric antibody 1B6-mVH-HC (IgG1) mVL
In assay [1], B3 displayed a Kd of 44.4 nM, a koff of 0.000792 s⁻¹ and a kon of 17800 M⁻¹ s⁻¹.

B4: 1B6-mVHmVL (antibody, human IgG4 S228P, kappa)
heavy: not shown
light: B1 light with S12T, L30F, Y93F, F102L, S106A, I112L
notes: also called chimeric antibody 1B6; chimeric antibody murine 1B6 monoclonal antibody
On to B4, for which, in assay [1], binding was characterised by a dissociation constant (Kd) of 84.2 nM, the koff was 0.00188 s⁻¹ and the kon came out at 22300 M⁻¹ s⁻¹.

B5: 1E7-huVH3-HC (IgG1) huVL2 (antibody)
heavy: not shown
light: DIQMTQSPSSLSASVGDRVTMTCKSSQSLLNSGNQKNYLTWYQQKPGKAPKLLIYWASTRESGVPSRFSGSGSGTDFTLTISSLQPEDFATYYCQNDYSYPFTFGGGTKLEIKRTVAAPSVFIFPPSDEQLKSGTASVVCLLNNFYPREAKVQWKVDNALQSGNSQESVTEQDSKDSTYSLSSTLTLSKADYEKHKVYACEVTHQGLSSPVTKSFNRGEC
notes: humanized 1E7, human IgG1, kappa
B5 registered an EC50 in assay [2] of 0.0576 µg/mL. Besides, in assay [1], the affinity, expressed as Kd, was 0.289 nM; the off-rate constant (koff) came out at 2.94e-06 s⁻¹; the kon is 10200 M⁻¹ s⁻¹.

B6: 1E7-huVH4-HC (IgG1) huVL2 (antibody)
heavy: not shown
light: B5 light
notes: as for B5
In assay [2], B6 yielded an EC50 of 0.0397 µg/mL. In assay [1], this molecule displayed a Kd of 10.7 nM, a koff of 0.000126 s⁻¹ and a kon of 11800 M⁻¹ s⁻¹.

B7: 1E7-huVH2-HC (IgG1) huVL1 (antibody)
heavy: not shown
light: B5 light with Q3V, A13V, K48Q, A49P, S66D, L84V
notes: as for B5
For the molecule B7, the EC50 in assay [2] turned out to be 0.111 µg/mL. In assay [1], this molecule came in with a Kd of 1.82 nM, a koff of 1.97e-05 s⁻¹ and an on-rate (kon) of 10900 M⁻¹ s⁻¹.

B8: 1E7-huVH1-HC (IgG1) huVL1 (antibody)
heavy: not shown
light: B5 light with Q3V, A13V, K48Q, A49P, S66D, L84V
notes: as for B5
For B8, the EC50 in assay [2] is 0.0479 µg/mL. In assay [1], this molecule registered an equilibrium dissociation constant (Kd) of 4.9 nM, an off-rate constant (koff) of 5.97e-05 s⁻¹ and a kon of 12200 M⁻¹ s⁻¹.

B9: 1E7-huVH3-HC (IgG1) huVL3 (antibody)
heavy: not shown
light: B5 light with M21I, K24R
notes: as for B5
The molecule B9 yielded an EC50 in assay [2] of 0.0707 µg/mL. In assay [1], this molecule came in with a Kd of 11.6 nM, a koff of 0.000132 s⁻¹ and a kon of 11300 M⁻¹ s⁻¹.

B10: 1E7-huVH1-HC (IgG1) huVL2 (antibody)
heavy: not shown
light: B5 light
notes: as for B5
In turn, B10 gave an EC50 in assay [2] of 0.0305 µg/mL. Besides, in assay [1], the Kd is 4.85 nM, the koff was found to be 5.87e-05 s⁻¹ and the kon is 12100 M⁻¹ s⁻¹.

B11: 1E7-huVH3-HC (IgG1) huVL1 (antibody)
heavy: not shown
light: B5 light with Q3V, A13V, K48Q, A49P, S66D, L84V
notes: as for B5
The molecule B11 displayed a 50% effective concentration (EC50) in assay [2] of 0.0663 µg/mL. In assay [1], this molecule came in with a Kd of 0.35 nM, a koff of 3.6e-06 s⁻¹ and a kon of 10300 M⁻¹ s⁻¹.

B12: 1E7-huVH2-HC (IgG1) huVL2 (antibody)
heavy: not shown
light: B5 light
notes: as for B5
The molecule B12 showed an EC50 in assay [2] of 0.0555 µg/mL. In assay [1], this molecule came in with a Kd of 2.89 nM, a koff of 3.18e-05 s⁻¹ and an on-rate constant (kon) of 11000 M⁻¹ s⁻¹.
